Experimental data reported in patent US6875741.
No end group written: not given here.

The binders below were run against soluble human insulin receptor-immunoglobulin heavy chain chimera (human) (UniProt P06213) (assay: phage ELISA ratios compared). Conditions: not given.

Row | IR/IGF-1R ratio comparison | Binder
1 | 0.1 | LRIANLFYQRLWDLAFGGGG [20E2B-3-E8-IGFR]
2 | 0.1 | YRGMLVLGRISGGAGKAASERPARIGQKVSAVNFYDWFV [A6L-0-H3-IR]
3 | 0.1 | SSYGCDGFYLMLFSLGLVASQELEC [20C-3-A1-IGFR]
4 | 0.3 | GGTKAVAKVGTRDDPFYHKLSELLQGS [B6Hα-4-G8-IR]
5 | 0.1 | RGMKEEVLVGGSTDPFYHKLSELLQGS [B6Hα-3-F11-IR]
6 | 0.1 | GGTEVDFYRALERLVRGQLGL [20E2B-3-D8-IGFR]

More lines, now with the values behind:

Row | Binder | IR/IGF-1R ratio comparison
7 | LQPCSGFYECIERLIGVKLSG [20E2Bβ-4-G7-IR] | 0.1
8 | IIGGFYSYFNSVLRLGT [NNRPγ-4-A1-IR] | 0.2
9 | QPAPDGFYSALMKLIGRGGVS [20E2B-3-C8-IGFR] | 0.1
10 | RGAVAGFHDQFYDWFDRQVSRVHKFG [H2CA-4-H9-IGFR] | 0.3
11 | MMVVDGFYDALHQLVVAQSLG [20E2A-3-D10-IGFR] | 0.3
12 | YRGMLVLGRSSDGAGKVAFERPARIGQTVFAVNFYDWFV [A6L-0-E6-IR] | 0.1
13 | RCEEKQAEVGPSSDPFYHKMSELLGCR [B6Hα-3-E9-IR] | 0.1
14 | GCVVEWQKWHGASDPFYHKLSELGGCS [B6Hα-3-F10-IR] | 0.2
15 | QPDHSYFYSLLQELVGSEERL [20E2B-4-F9-IGFR] | 0.1

Each binder was assayed against soluble human insulin receptor-immunoglobulin heavy chain chimera (human) (UniProt P06213) (assay: phage ELISA over milk background). Conditions: not given.

Row | ratio over background | Binder
16 | 1.5 | LRIANLFYQRLWDLAFGGGG [20E2B-3-E8-IGFR]
17 | 2 | YRGMLVLGRISGGAGKAASERPARIGQKVSAVNFYDWFV [A6L-0-H3-IR]
18 | 1.5 | SSYGCDGFYLMLFSLGLVASQELEC [20C-3-A1-IGFR]
19 | 1.7 | GGTKAVAKVGTRDDPFYHKLSELLQGS [B6Hα-4-G8-IR]
20 | 1.6 | RGMKEEVLVGGSTDPFYHKLSELLQGS [B6Hα-3-F11-IR]
21 | 1.6 | GGTEVDFYRALERLVRGQLGL [20E2B-3-D8-IGFR]

Continued, binder first:

Row | Binder | ratio over background
22 | LQPCSGFYECIERLIGVKLSG [20E2Bβ-4-G7-IR] | 1.6
23 | IIGGFYSYFNSVLRLGT [NNRPγ-4-A1-IR] | 1.8
24 | QPAPDGFYSALMKLIGRGGVS [20E2B-3-C8-IGFR] | 1.8
25 | RGAVAGFHDQFYDWFDRQVSRVHKFG [H2CA-4-H9-IGFR] | 1.9
26 | MMVVDGFYDALHQLVVAQSLG [20E2A-3-D10-IGFR] | 1.8
27 | YRGMLVLGRSSDGAGKVAFERPARIGQTVFAVNFYDWFV [A6L-0-E6-IR] | 1.8
28 | RCEEKQAEVGPSSDPFYHKMSELLGCR [B6Hα-3-E9-IR] | 1.7
29 | GCVVEWQKWHGASDPFYHKLSELGGCS [B6Hα-3-F10-IR] | 1.9
30 | QPDHSYFYSLLQELVGSEERL [20E2B-4-F9-IGFR] | 1.9

What follows are binders tested against insulin receptor prepared according to Bass et al., 1996 (soluble IR) (human) (UniProt P06213) (assay: phage ELISA; A405 on IR / A405 on non-fat milk). Conditions: not given.

Row | ratio over background (fold over background) | Binder
31 | 0.3 | DYKDLSCLAYSRHGIWRPSTDLGLGRSVGEGSVSTRWRGYDWFEAAAGAP (peptide, not shown: large carriers) [40F-4-D1-IGFR]
32 | 1.3 | DYKDMNVFVSFYDAIDQLVCQRIGCAAAGAP (peptide, not shown: large carriers) [20E2A-4-G11-IGFR]
33 | 1.8 | DYKDVDTPAQVGWNRLWSVGPGEHWYTDDPFYHXLSELLRESGAAAAGAP (peptide, not shown: large carriers, not fully specified; X: residue not identified in the source) [B6L-3-G6-IR]
34 | 1.4 | DYKDAETSAQVGWQRLWSVWPGDHWSTLDPFYHKLSELLRESGAAAAGAP (peptide, not shown: large carriers) [B6L-3-G5-IR]
35 | 1.5 | DYKDQSGSGDFYDWLSRLIRGNGDGAAAGAP (peptide, not shown: large carriers) [20E2Bβ-3-C7-IR]
36 | 1 | DYKDSSETAKMVTGTRDDPFYHKLSELVQGSAAAGAP (peptide, not shown: large carriers) [B6Hα-2-D8-IR]
37 | 1.1 | DYKDGCITAENGAGDPFYHKLSELGGCSAAAGAP (peptide, not shown: large carriers) [B6Hα-1-B3-IR]

Further lines, the binder ahead of its results:

Row | Binder | ratio over background (fold over background)
38 | DYKDCGAKMTGTPNDPFYHKLSELLQRGAAAGAP (peptide, not shown: large carriers) [B6Hα-3-E6-IR] | 1.2
39 | DYKDAGSVTSFYDAMEQLVATGTSAAAAGAP (peptide, not shown: large carriers) [20E2A-3-A4-IGFR] | 1.8
40 | DYKDCSMAAVAEAGDDDDPFYHKLSELCQGSAAAGAP (peptide, not shown: large carriers) [B6Hα-3-F1-IR] | 1.3
41 | DYKDGLDHSDAVGVHLGFAWPAQARGRWEAGGLEDTWAGYDWLAAAGAP (peptide, not shown: large carriers) [40F-4-B1-IGFR] | 0.2
42 | DYKDSRVAATKEKRPSDDPFYHKLSELLQGSAAAGAP (peptide, not shown: large carriers) [B6Hα-3-F7-IR] | 1
43 | DYKDRCGDEEGWQENRRDDPFYHKLSELFGGCAAAGAP (peptide, not shown: large carriers) [B6Hα-3-E5-IR] | 1
44 | DYKDAGTPAQVGXNRLWSVWPGEHWNTVDPFYNKLSELLRESGAAAAGAP (peptide, not shown: large carriers, not fully specified; X: residue not identified in the source) [B6L-4-A7-IR] | 1.9
45 | DYKDGHYFGSFYDAIDQLVAGMLPGAAAGAP (peptide, not shown: large carriers) [20E2A-3-A3-IGFR] | 1.5

The binders below were run against soluble IGF-1R (UniProt P08069) (assay: phage ELISA; A405 on IGF-1R / A405 on non-fat milk). Conditions: not given.

Row | ratio over background (fold over background) | Binder
46 | 4.6 | DYKDLSCLAYSRHGIWRPSTDLGLGRSVGEGSVSTRWRGYDWFEAAAGAP (peptide, not shown: large carriers) [40F-4-D1-IGFR]
47 | 3.3 | DYKDMNVFVSFYDAIDQLVCQRIGCAAAGAP (peptide, not shown: large carriers) [20E2A-4-G11-IGFR]
48 | 2.5 | DYKDVDTPAQVGWNRLWSVGPGEHWYTDDPFYHXLSELLRESGAAAAGAP (peptide, not shown: large carriers, not fully specified; X: residue not identified in the source) [B6L-3-G6-IR]
49 | 2 | DYKDAETSAQVGWQRLWSVWPGDHWSTLDPFYHKLSELLRESGAAAAGAP (peptide, not shown: large carriers) [B6L-3-G5-IR]
50 | 3.1 | DYKDQSGSGDFYDWLSRLIRGNGDGAAAGAP (peptide, not shown: large carriers) [20E2Bβ-3-C7-IR]
51 | 3 | DYKDSSETAKMVTGTRDDPFYHKLSELVQGSAAAGAP (peptide, not shown: large carriers) [B6Hα-2-D8-IR]
52 | 3.2 | DYKDGCITAENGAGDPFYHKLSELGGCSAAAGAP (peptide, not shown: large carriers) [B6Hα-1-B3-IR]

More lines, now with the values behind:

Row | Binder | ratio over background (fold over background)
53 | DYKDCGAKMTGTPNDPFYHKLSELLQRGAAAGAP (peptide, not shown: large carriers) [B6Hα-3-E6-IR] | 2.3
54 | DYKDAGSVTSFYDAMEQLVATGTSAAAAGAP (peptide, not shown: large carriers) [20E2A-3-A4-IGFR] | 2.5
55 | DYKDCSMAAVAEAGDDDDPFYHKLSELCQGSAAAGAP (peptide, not shown: large carriers) [B6Hα-3-F1-IR] | 2.4
56 | DYKDGLDHSDAVGVHLGFAWPAQARGRWEAGGLEDTWAGYDWLAAAGAP (peptide, not shown: large carriers) [40F-4-B1-IGFR] | 3
57 | DYKDSRVAATKEKRPSDDPFYHKLSELLQGSAAAGAP (peptide, not shown: large carriers) [B6Hα-3-F7-IR] | 3.1
58 | DYKDRCGDEEGWQENRRDDPFYHKLSELFGGCAAAGAP (peptide, not shown: large carriers) [B6Hα-3-E5-IR] | 2.9
59 | DYKDAGTPAQVGXNRLWSVWPGEHWNTVDPFYNKLSELLRESGAAAAGAP (peptide, not shown: large carriers, not fully specified; X: residue not identified in the source) [B6L-4-A7-IR] | 3.4
60 | DYKDGHYFGSFYDAIDQLVAGMLPGAAAGAP (peptide, not shown: large carriers) [20E2A-3-A3-IGFR] | 3

Each binder was assayed against soluble IGF-1R (UniProt P08069) (assay: phage ELISA; IGF-1R ratio over background divided by IR ratio). Conditions: not given.

Row | IGF-1R/IR ratio comparison | Binder
61 | 13.1 | DYKDLSCLAYSRHGIWRPSTDLGLGRSVGEGSVSTRWRGYDWFEAAAGAP (peptide, not shown: large carriers) [40F-4-D1-IGFR]
62 | 2.6 | DYKDMNVFVSFYDAIDQLVCQRIGCAAAGAP (peptide, not shown: large carriers) [20E2A-4-G11-IGFR]
63 | 1.4 | DYKDVDTPAQVGWNRLWSVGPGEHWYTDDPFYHXLSELLRESGAAAAGAP (peptide, not shown: large carriers, not fully specified; X: residue not identified in the source) [B6L-3-G6-IR]
64 | 1.4 | DYKDAETSAQVGWQRLWSVWPGDHWSTLDPFYHKLSELLRESGAAAAGAP (peptide, not shown: large carriers) [B6L-3-G5-IR]
65 | 2 | DYKDQSGSGDFYDWLSRLIRGNGDGAAAGAP (peptide, not shown: large carriers) [20E2Bβ-3-C7-IR]
66 | 2.9 | DYKDGCITAENGAGDPFYHKLSELGGCSAAAGAP (peptide, not shown: large carriers) [B6Hα-1-B3-IR]

The next lines start with the binder.

Row | Binder | IGF-1R/IR ratio comparison
67 | DYKDCGAKMTGTPNDPFYHKLSELLQRGAAAGAP (peptide, not shown: large carriers) [B6Hα-3-E6-IR] | 1.9
68 | DYKDAGSVTSFYDAMEQLVATGTSAAAAGAP (peptide, not shown: large carriers) [20E2A-3-A4-IGFR] | 1.4
69 | DYKDCSMAAVAEAGDDDDPFYHKLSELCQGSAAAGAP (peptide, not shown: large carriers) [B6Hα-3-F1-IR] | 1.8
70 | DYKDSRVAATKEKRPSDDPFYHKLSELLQGSAAAGAP (peptide, not shown: large carriers) [B6Hα-3-F7-IR] | 3.1
71 | DYKDRCGDEEGWQENRRDDPFYHKLSELFGGCAAAGAP (peptide, not shown: large carriers) [B6Hα-3-E5-IR] | 2.9
72 | DYKDAGTPAQVGXNRLWSVWPGEHWNTVDPFYNKLSELLRESGAAAAGAP (peptide, not shown: large carriers, not fully specified; X: residue not identified in the source) [B6L-4-A7-IR] | 1.8

The binders below were run against insulin receptor prepared according to Bass et al., 1996 (soluble IR) (human) (UniProt P06213) (assay: phage ELISA; IR ratio over background divided by IGF-1R ratio). Conditions: not given.

Row | IR/IGF-1R ratio comparison | Binder
73 | 0.1 | DYKDLSCLAYSRHGIWRPSTDLGLGRSVGEGSVSTRWRGYDWFEAAAGAP (peptide, not shown: large carriers) [40F-4-D1-IGFR]
74 | 0.4 | DYKDMNVFVSFYDAIDQLVCQRIGCAAAGAP (peptide, not shown: large carriers) [20E2A-4-G11-IGFR]
75 | 0.7 | DYKDAETSAQVGWQRLWSVWPGDHWSTLDPFYHKLSELLRESGAAAAGAP (peptide, not shown: large carriers) [B6L-3-G5-IR]
76 | 0.5 | DYKDQSGSGDFYDWLSRLIRGNGDGAAAGAP (peptide, not shown: large carriers) [20E2Bβ-3-C7-IR]
77 | 0.3 | DYKDGCITAENGAGDPFYHKLSELGGCSAAAGAP (peptide, not shown: large carriers) [B6Hα-1-B3-IR]

Further lines, the binder ahead of its results:

Row | Binder | IR/IGF-1R ratio comparison
78 | DYKDCGAKMTGTPNDPFYHKLSELLQRGAAAGAP (peptide, not shown: large carriers) [B6Hα-3-E6-IR] | 0.5
79 | DYKDCSMAAVAEAGDDDDPFYHKLSELCQGSAAAGAP (peptide, not shown: large carriers) [B6Hα-3-F1-IR] | 0.5
80 | DYKDSRVAATKEKRPSDDPFYHKLSELLQGSAAAGAP (peptide, not shown: large carriers) [B6Hα-3-F7-IR] | 0.3
81 | DYKDRCGDEEGWQENRRDDPFYHKLSELFGGCAAAGAP (peptide, not shown: large carriers) [B6Hα-3-E5-IR] | 0.3

What follows are binders tested against soluble human insulin receptor-immunoglobulin heavy chain chimera (human), P06213 (assay: ratio of IC50 on rhIGF-1R (TR-FRET vs b-20E2) to IC50 on sIR-Fc (FP vs FITC-RP9)). Conditions: remark: other sources report otherwise.

Row | Binding Ratio IGF-1R/IR | Binder
82 | 0.19 | CWARPCGDAANFYDWFVQQAS [C1 (D112)]
